Results published in patent US20200165351A1 (University of California, published 2020).

Assays:
[1] = target: T1, recombinant human N-cadherin ECD1-3-Fc (human; murine, UniProt P19022 160-497); experiment: ELISA, saturation binding on immobilized antigen
T1 construct: range 160-497; Cloned into pSECTag2A(AgeI); produced in 293-F cells, Protein A purified; also called Ncad-ECD1-3-Fc; not shown: murine gamma 2a Fc region
T1 sequence (looked up): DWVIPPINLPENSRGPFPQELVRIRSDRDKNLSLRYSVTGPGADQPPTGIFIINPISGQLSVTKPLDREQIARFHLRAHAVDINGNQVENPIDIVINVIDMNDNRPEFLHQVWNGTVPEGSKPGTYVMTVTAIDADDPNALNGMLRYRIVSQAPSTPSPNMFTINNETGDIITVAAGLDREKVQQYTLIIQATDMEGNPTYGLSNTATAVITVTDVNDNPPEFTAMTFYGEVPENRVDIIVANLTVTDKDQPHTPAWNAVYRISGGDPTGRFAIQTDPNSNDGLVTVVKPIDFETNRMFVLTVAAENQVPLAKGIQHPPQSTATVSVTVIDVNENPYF
Procedure: Saturation binding of the humanized scFv fragments was performed on immobilized recombinant human Ncad-ECD1-3-Fc in ELISA (FIG. 8) confirming successful humanization and retained antigen specificity.

[2] = target: bacterially produced human N-cadherin ECD4 with ECD3 overhang (human) (UniProt P19022); experiment: ELISA, saturation binding on immobilized antigen, half-maximal binding
[3] = target: T2, bacterially produced N-cadherin ECD1-3 (UniProt P19022 160-497, limits assumed); experiment: as above
T2 construct: domain: ECD1-3; Antigen against which hybridoma 1H7 was selected; also called ECD1-3 (bacterially produced)
T2 sequence (looked up): T1 sequence (looked up)
Procedure: FIG. 11 depicts saturation binding of full length IgGs to recombinant antigen in ELISA. Bacterially produced antigens ECD4 and ECD1-3 were immobilized. Bound antibodies were detected with goat anti-human Fcg-AP or goat anti-mouse Fcg-AP respectively.
Saturation binding of the humanized full-length antibodies in comparison to the parental murine antibodies was tested in ELISA.

B1: humanized 2A9 scFv (scFv)
scFv: QVQLVQSGAEVKKPGASVKLSCKASGYTFTSYWMQWVRQAPGQGLEWIGAIYPGDGETTYTQKFKGRVTMTADTSISTAYMELSRLRSDDTAVYYCAKGDGYWAMDYWGQGTLVTVSSGGGGSGGGGSGGGGSDVVMTQSPLSLPVTLGQPASISCRSSQSLVHSNGNTYLHWYQQRPGQSPRLLIYKVSNRFSGVPDRFSGSGSGTDFTLKISRVEAEDVGVYYCSQSTHVPLTFGAGTKLELK
notes: VH-(G4S)3-VL scFv secreted with the Ig kappa leader; also called hu2A9 scFv; scFv hu2A9; not shown: C-terminal tag from vector pSECTag2A (His-tag; detected through c-Myc)
B1: binds [1].

B2: hu2A9 IgG (antibody, V domains shown)
VH: QVQLVQSGAEVKKPGASVKLSCKASGYTFTSYWMQWVRQAPGQGLEWIGAIYPGDGETTYTQKFKGRVTMTADTSISTAYMELSRLRSDDTAVYYCAKGDGYWAMDYWGQGTLVTVSS
VL: DVVMTQSPLSLPVTLGQPASISCRSSQSLVHSNGNTYLHWYQQRPGQSPRLLIYKVSNRFSGVPDRFSGSGSGTDFTLKISRVEAEDVGVYYCSQSTHVPLTFGAGTKLELK
B2 gave a Kd [2] of 0.5 nM.

B3: hu1H7 IgG (antibody, V domains shown)
VH: QVQLVQSGAEVKKPGASVKVSCKASGFTFTDYLIQWVRQAPGQGLEWIGWIYPGSGSIKYNEKFQGRVTMTADTSINTAYMELSRLRSDDTAVYFCARRGDWGGFFDYWGQGTLVTVSS
VL: EIVLTQSPATLSLSPGERATLSCTASSSVSSSYLHWYQQKPGLAPRLWIFSTSNLASGIPDRFSGSGSGTDFTLTISRLEPEDFAVYYCHQYHRSLTFGGGTKVEIK
notes: also called h1H7; humanized full-length antibody hu1H7
With B3 the Kd [3] was 0.4 nM.
